Source: the supplement of paper PMC10567573

B1: ZC3H15 (parent)
chain: RKADFKAGKALVISGREVFEFRPE
B2: COX4I1 (parent)
chain: FDKEWVAKQTKRMLDMKVNPIQGL

Variants of: B1
Test: protein stability index of a GFP-peptide fusion (GPS, HEK-293T) (PSI 1-6); higher = more stable
Conditions: c terminus: a fixed tail appended
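Note: lentivirally expressed fusions sorted by FACS into six bins by GFP to DsRed ratio, PSI derived from sequencing read proportions per bin multiplied by bin number.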

Protein stability index: each site, then its substitutions
F21: A 3.05, H 3.57, D 4.04, N 3.73, Q 4.23, C 3.78, S 3.91, E 4.46
F5: T 3.59, N 3.38, I 2.94, K 3.47, W 2.48, D 3.77, E 4.18, V 3.6, P 3.25, S 3.77
P23: D 3.82, S 3.44, M 2.09, W 1.24, Y 1.9, C 2.42, E 3.38, H 2.62, I 1.35
R16: V 1.91, H 2.98, Y 1.54, Q 3.61, C 1.89, L 2.42, K 3.38, M 2.08, W 1.92, F 1.65
G8: R 2.52, D 3.31, L 1.92, S 2.7, K 3.24, C 2.14, W 1.79, H 2.66, T 2.78
K9: F 1.7, C 2.33, P 2.78, M 2.31, D 3.18, Y 1.05
V12: A 3.23, F 2.39, M 3.26, C 2.89, K 2.91, T 2.68
A7: Q 2.93, F 2.21, G 2.86, H 2.75, N 3.11, Y 2.18, V 2.91, P 3.2
I13: R 3.89, V 3.51, D 4.17, Q 3.72, M 3.26, T 3.21
R22: E 3.53, G 3.4, M 3.54, D 3.72, H 2.72, S 3.29
D4: V 2.2, F 1.98, C 1.79, T 1.98, K 2.53, H 2.15, E 2.64, P 2.36, I 2.27
V18: R 3.58, M 2.8, L 2.72, Y 2.74, P 3.05, D 3.69, F 2.68, S 3.34, H 3.22, T 3.32, C 2.95, I 2.95, A 3.33, E 3.89
G15: D 3.38, M 2.04, T 2.93, S 3.18, F 2.27, K 3.14, Q 2.92, W 1.37
S14: Y 2.39, W 1.87, I 1.93, K 3.32, E 3.67, R 2.56, Q 2.81
E17: W 2.12, I 1.64, K 2.08, M 1.14, T 1.75, P 2.66, R 2.67, D 2.88
A10: I 2.09, F 1.53, Y 1.92, S 2.86, V 2.49, M 2.09, L 2.09
E20: T 2.73, F 1.96, R 3.14, D 3.37, W 1.61, C 2.68, K 2.68, I 1.71, P 2.62, H 2.13, N 2.81
R1: Q 2.99, A 3.21, L 2.43, E 3.5, K 3.32, P 3.19
A3: H 2.44, G 3.13, F 2.23, M 2.75, D 3.7, R 2.85, V 2.61, E 3.77, P 2.95, W 2.51
K2: C 1.85, P 2.75, A 3.43, V 2.49, I 1.92, L 1.76
F19: W 2.43, A 4.01, V 3.25, H 4.13, K 3.47, C 3.76, L 3.33, E 4.23, P 4.08, D 4.68, Q 3.63
L11: R 2.95, P 3.54, S 3.69
E24: Q 2.84, G 2.12, R 2.43, L 1.9, W 1.84, Y 2.17
K6: W 2.4, M 2.36, D 3.75, N 3.22, T 2.99, Y 2.87, F 1.79, E 3.24

Variants of: B2
Test: as above
Conditions: c terminus: a fixed tail appended

Protein stability index: each site, then its substitutions
V18: D 1.53, T 2.24, S 1.81, I 1.65, G 2, M 1.86, L 1.72, F 1.42, C 1.88, E 1.95, W 1.99, Q 2.22, K 1.19, P 2.13, Y 2.87, A 1.79, H 1.94, N 1.86, R 2.19
L24: W 1.73, Y 1.59, C 2.19, M 1.74, F 1.72, A 1.83, G 2.86, I 2.3, S 2.31, E 3.09, Q 2.45, K 1.03, D 1.84, R 2.09, H 2.55, P 2.08, N 2.28, T 1.35, V 1.91
N19: G 1.94, A 1.75, V 2.22, W 1.38, F 1.77, D 1.79, L 1.26, Q 1.64, S 1.97, I 1.76, K 1.92, H 1.7, M 1.97, Y 2.55, P 2.32, R 1.71, C 2.23, E 1.9, T 1.16
K17: Y 2.14, W 2.4, R 1.95, S 1.55, Q 1.41, N 1.88, T 1.83, P 2.24, V 2.03
P20: W 2.4, Y 2.05, R 1.68, N 1.47, C 1.73, H 1.78, M 2.08, G 2.17, T 2.38, L 1.63, D 1.63, V 1.73, Q 1.54, S 1.55, K 1.55, A 1.61, I 1.56, E 1.59, F 1.71
G23: C 3.51, R 1.48, I 1.81, W 1.88, E 1.72, D 1.9, S 1.7, V 1.59, A 1.43, L 1.35, F 2.36, P 1.39, N 1.8, H 1.4, Q 2.02, Y 1.92, T 1.77, M 1.76, K 2.02
I21: C 2.6, H 2.19, K 2.06, M 2.63, N 2.21, D 1.93, E 1.66, Y 1.75, V 1.89, T 1.83, A 1.54, S 1.32, W 2.17, G 1.75, R 1.61, Q 1.78, P 1.63, F 1.46, L 1.64
Q22: M 2.69, G 1.63, F 1.73, K 1.92, S 2.23, P 1.73, I 2.79, A 1.93, T 1.91, C 1.29, W 1.68, D 2.31, Y 2.13, L 2.08, H 1.93, N 1.77, E 1.71, V 2.58, R 1.89
